Measured values reported in the NTF2 design screens of Basanta et al. (2020).

Experiment: protease stability score; higher = more stable; yeast display proteolysis, trypsin and chymotrypsin;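 further: relative to predicted unfolded state with 0 unfolded-like and 1 meaning tenfold more protease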

Sequence	protease stability score
SEREKHSKELNEHMIQLFETGDEDLLIRMADPHVRVIQGDKEYHGRHWYEKIFHDFVKQAQNARFEIHDVKIQGEKLIIHGKMEWNGKRHEVEWYFDIVDGRIKEEEIRIR	0.943
SEREKHWRDWVENVVEYHTHLLETGDEEEWKRFFRRLADPHVRMIVGDKVTHGREDAMRLFDELIKLLGVNHVHFRRVEIIGNKVNIDVELRQGNKFINLELILIVIDGKLENVERRVH	1.14
SEREKIAELAYRLLKRSSDTGDPHLMQWLMDPNTRIEQGEFEHHGRDAISFWIKRFDHNRHIDVKRIEVQGNKVIMEFDVELDVNGVEIHTELVLISLKVNGQWRMESIKIE	0.575
SEREQTVRHWVELLIHLLITGDEETLVHLLDPHARADIDGVEMHGRKTTEFWLKLFPHIKIELRRVEIQGEKVHMDTTMIQGEKERSTRIHLDVINGRIKRHSYEIE	0.262
SERHDHAEHVLRLWEHFWKTGDETNLSRLLDPSVRWVIGDKVYHGMETVSHNLSRHYLRADHVEESVHRLNFQGNKVEMDGRIILNVNGVQIDKRSHIELISFNGKIKELDLHIT	0.371
SERHEESHERTRLLMHAHETGDFHTLQRLMDPDTRLLIIFNGREIHIHGMESAFKFFNEIRISHVTIHRVDIQGDKVNVDGEQEGQINGQRSRNRIHWDIDVIDGKIKRIIVEIR	0.993
SERHEILRLITEIWDHLKHTGDEDSLADLFDPHARMIWNGRDIHGWSNLIEAFRKILEFLGIDRIHIENTEMRLQGDKSHNRTDLNVNGKHLDTRVHLDVVDGRIRVTEVRIH	1.06
SERHEKTKKVLDDFLEIRETGDEHTFNRLADPHTRVHIGDKYVHGMEDANKMLKQWEQEMGIDHIIIRHVEIRLFNGKVNHHLDEELIVNGQSLRVEVVLFIFKFDGRWVLEKLHINVH	1.21
SERHELVVRIVRLWIRMIRTGNEELYMRLADPHVKLDVNGREMHGRERSTEMWSELRIRHLHTEHIEVAENRFVVHGRLVTEFNGKEHDVKVVIHVEIVDGRIKEEEYHIL	1.29
SERHKDMKRLIDEWRKSYETGDEDQLRRLLDPTTRVDFNGVEYHGRHEAVEIMSQIRVEHIDIRELHVQGNKAEVRVRMHGHFDGQEEEVEFIIYMKKVNGRWVVHQEEHR	1.16
SERKQASEDAFRIYIETFKTGDERTMRENMDPDVRVHIGEFNHHGMEESAHLLHEYWKRFGFRIRHVHIEDVKNVGNKVILHTLSEIEINGREEHVDTELIILKIDGKWLVEEVRVK	0.92
SERREFSNFTMQMTITVTLTGDFHTSHRFVDPHARWEQGDKEYHGREIFAKTLLDKSSELGVDHYDIKTIHIQGEKVTVHLRVEVNGVEFELILRAHKINGVWLMESVEVRER	0.971
SERRERLEVLSEILLRAWETGDEQELVENADPHTKLEVHQGDKEKHFHGWELILKHIYQIKNVKIHIEHVHIQGDKIENHVKLNINGKRIEVEITVWVVDGVIKHMEVRIK	1.93
SERSEFITRLTREMIHAFETGDWKWLSELLDPNTRYHFRQGDKEFDMHGREEMVKMLEKILRHFGIDHFHIEDVKLYGDKVIVHHRSLVNGKEVHVRIEWDIVDGRIKSFNLDYHEN	1.26
SESDEMAVEMLLRWVENLITGDEHTSQELLDPHVRIIFYIGDKEVHYHGWENAVEFWEEVVRRYDYFHIKFEEITVQGEKVRSKTRLTVIINGQEERYDTKLNAIVVNGRFKSVTIQYD	0.876
SESEDLLETLERVIRRVDETGDERDFHEMLDPDARIIIGDKIHIGREASELWFKRVDHIHHRHIHQIRVIGNKMHIDIEVDGKIGDWRFRTRVELVLVKVNGKWMVHHININ	1.17
SESEDQAHKFSEEWIKAFETGDEEHMNRLVDPNVRIEVGDKEHHGRHVYLEILKRLGANHVRIHIEDIEVQGEKLIIHGKIIITVGDKVIEIRTIIIVTKIDGRWRIKDIIFH	1.39
SESEEASEWVIKIWRDTMETGDEKTLNHLLDPSVRLVVNGQEIHGRESMIKEFRRFKNVKLHDIKHHDIDMIGDKIIIHGTIHGEINGREVTVEQEIISIKVNGKWLTRSLILH	1.64
SESEEASREAIHLMIESWRTGNEHILDRLMDPNVRNRIDGRDLIGRENFLEVLRHLEEKMGIDHIEFDTERVRWVGDKAESDTRFETVYNGKNVEISTKVHWEKVNGRWHIREIRFH	1.17
SESEEDAHKASREITHMLYTGNEELWSTLADPNTRIVINGVEVHGREQVVRVIRELLRRFGVDKVHSELRTVDVQGEKVEIHSHYVQGDKSYDIILVMNKIDGRWHLQRQSIR	1.18
SESEEDFRWFMHVLLKTFLTGDEDEFDSLIDPNVRLIVNGKDTHGWEVAVKFVRRFDHLDLYVRESEIQGDKVESDTELIVNFNGVSIKHKTRVIAEKVNGRWILREMRIG	1.44
SESEEEARKVIERLFRAERTGDEDDVKHLLDPNVKIDWNGRKYHGRDDWAHYISHLGIDHSELIIKHLEYQGDKLRLHGILRYVIGDKTIEEEVFEHMQKINGRWRIREIHIK	1.64
SESEEEARRKSEVFLRHLRTGDFREFIKLADPHVLNIFPGVNHVGREHWRRLELHLRRREFRVHDERLDIQGDKVRINIDLETDVEFDGKELKFRTLILIEAEKVDGRWRVTEVSEEPR	0.524
SESEEFAREFLEHMEKFLRTGNWEEMKRNADPNVLLRIGDKHLHGREEYEEWLRKFLEHMRIREVEVKDLKIVGDKIFLIIRIRIHFDGREDQLDTILVMQKVDGRWIVTEIRVR	1.21
SESEEFLEKAYRLIEESLRTGDFREMLSNIDPNARFRYGNFDFHGRENLEFMLKELSKRIDHFHNSHIRRVNVINGRMHLHTSMHVEYDGKKEEVETEWVLLKVDGQWLIKEVTVI	2.51

Sequence	protease stability score
SESEEHSKKLFDTWVHSELTGDERSLLHLMDPHVKFIIDGREIHGREKASEFLVKLREHLGAEIHDYRVRDMKIQGEKVIIHSELDVQVDGVRHHERLVLIMHKIDGQWSVESVKRV	1.08
SESEEIAHNFTELLIKTLNTGDEKLYRELADPNARIEINGVELVGWKKANELLQRIDHERVRRVKLKDIEVQGDKVIVRTHEEREINIGDKRLHIRTDVEIIWVKINGKWILHEISVH	1.23
SESEELAEHWFELLIRSILTGDEDTLRRLMDPDVKIQVGDKEWHGREEYIRMVLEFSHLYKNVKLHFRIRSVVDIDGRLTVDTEIINSFDGREYRIDTRLHVDKYDGVWVAKHLIYS	1.39
SESEHKAREMIRLIEHFLITGDEESWHRLFDPHTRVVIDGREIHGMEIYNHWLKELRIRDSHIHIRTIEDINGRINIHGELQLHGIINGQTHDFRSHIDLHVLKFNGRWHMETYIIS	1.57
SESEHLLHTAHELVLRLQETGDWDEIIELADPNVRMEIGDKEIHGREEFERWSREMRFEHVEIHDMRVQGNKADLDGRMRGHFNGRTIDTRVKIIFHKVDGRWLITSYHVK	1.18
SESEKASEIATKELEEVEKTGDEKTIEDYMDPNTRLHINGVDLHGMENFLEFWHRLLRKLGFESTSFHLKSSRIQGNKIKMHSIIHVKQGEKDISFDVEYIALKFNGRWIEESMSSK	1.32
SESERATRHALRLLWDILLTGDEETWEKMADPNVRVEIGNFHDHGMDSMRLLFHLLLERIDHIHDFTVRHSHSQGDKVENHTEIEVRQGDKSLNITTVFVYVKINGRWINKRVIFK	0.999
SESERYIHEAERHLIEKLRTGDWDDMSRLLDPHVRLDVNGQEFHGWHRVSDTMRRFGFKHVDVEDTHINEDELRSHLRSRVDGVHFELHIQMRKVNGRWFFKNLEFK	1.15
SESHDLLEEFVRLILHLWRTGDEEILHNMADPNTQMHIGDKTYHGREEAVDVIHKLLKHLRFKHLHIDHIDIQGDWVRITGHLHVKVDGREIQREVSSVVIKINGRWILRSERID	2.27
SESHHLAKHVVHLFMHAVSTGDEKLLRELLDPDVRVDINGVELIGMEDFQKWLHEWREHMHDSKVHRVRDYNGVLESDVKVRRVLIVDGVRLEEETHSEVIIVKINGRWHVKHVRYR	1.26
SESHNFFKWALEVLLLSLRTGNERHLETLADPNMRVYINGREHHGRQMYFEMVFRWIEKFPNIQIHIHIEDTRVQGDKVHVDGEYQERFNGKTFVEKVHIIMLKIDGKWVLERDEII	1.6
SESKEFIKRFTEEILKNTLTGNEDRYEELLDPNVRVEVGDKEHHGREEALEFLHRIWRELRTKHIVLRDMRIIGDKAEVEYEVRVEVNGVELHMTRRMEIVVIDGRLKAVKLEHT	1.24
SESKHDLIRIFEERSEAHETGDEDFIMELIDPHVKIIIGDKTFHGREKYLEWEKLFGVKHVHFHVKDVRFQGDKVHVNGILRIRVGDKHEEFQVHILITKVNGVWIIKEIEIN	1.35
SESLEFATKLLEILTHLMYTGDEEDLRHLLDPHVRILFNGKYFHGMEFLMEIYKHWRIQEVRVRFRDVRDVDGRIFVRGEEENVGTINGKRDIVWSHITLIAEKVDGRWVVKEIRIE	1.88
SESQEVLEMAIRIWRHTVKTGDEREIAELMDPHVRIEVGDKEFIGRELVSHWFLRFSEHMRIHDIEIKRYHVVGNKAHIHTVVDGEVDGKRDYTEVELIVEKVDGRWLIRSMKIR	2.49
SETDEDFKRLVEEFIRLFLTGDEDQLLELHDPNTRVEVGDFEEHGMEKWSRFLEEERRRVKGLKLVREDEKIEVQGNKLHLILHGAIEFDGVRLFTRIIVHAEKVNGKWVIRRFKMETR	1.54
SETDELLRQLAEFHRETLETGDFHTLWHLLDPHVRLDYNGQKMHGREHFARFWLELLTELRIHFRVRDIRTQGNKAHNRGEIIIHYDGRLRIIDSEIEIIVVNGKVTEVRHTIN	0.837
SETDESSRVASELMREWLETGDEEVISELADPHVRFDWNGRRDIGRHSYLEFMHMLRRHMGIKHIEFKRIEVHVINGVVHVNITGILHFNGVQLTTHIHIHAEKIDGRWILKQSHYDTE	0.751
SETEEAATLMLRMLIETIYTGDEETYKRLADPHVKVRIGDKTFHGREQVIERLHRTWKEMRIEDVEVQDMRYQGDFIRNRTHILLHQGEYRHRFDVEIIVFKFNGQWILTSQHFH	1.11
SETEEAVKKVTHDLWHALLTGDEEIIRDLFDPHTKILINGVELHGMDEHKDFLDRFDHIHVHDRRIETVIVQGDKAISIGHIHVRFEYGDKHVSVHSEQRLIITKIDGKWIIRFVEIG	1.22
SETEEEAERFEKILLHYRKTGNEDDLLNFIDPHVRIHQGDKEIHGRELYLELMRRWKEIAGHDFFFMNIHDVEIQGEKAIIDGRLFVNGVHHKIKVIFKKINGRWIVESEHIH	0.889
SETEEEARKMIELLVEAWLTGDEHTLERMLDPHVKIIIDGRELHGWKVLAERIKHLRYEHFEFELHSVETQGDKIIIRGIVRSDLRVGDKEEHTHLEVIIIITKVNGRWVVHSIEIR	1.68
SETEEITERWLRLALEALRTGDFEFISRLADPHVRSEYNGVEFIGREEMVRFEEERLERLGATPSDLITRDVEFQGNKVIIHQEMEMRVGDKRHTNETTIFSHKFDGRWILHSIKFH	0.984
SETEELASKVTKEFKRVLETGDWRVSLNLLDPDTLLEINGVEFHGREAWEEFNERFKNVKIHFIERDMKIVGNKIKIEGHLEDRWNGQSTHREMHLVFDKVNGRWFNRSVHFG	0.57
SETEENAEHVVREWFEMITTGDEDEVLRLMDPHVRVRIGDKIIHGREIFLAHMRHWRIKNKHFEIEHMHFYGDKAVLDGRLVGEETVDGKHRTYDRRVDFNLVKIDGKWHIREFHVD	1.52
